Test results: US20220332804A1 (CSL INNOVATION, published 2022)
Positions count from the first letter of the chain named.

Key:
Assay in all cases: SPR, KD relative to WT C2;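 note: biacore SPR at 37 °C, anti-C2 mAbs captured via immobilised goat anti-human IgG, C2 alanine or serine surface mutants as analytes, 1:1 model fitted, double-referenced sensograms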
human C2 L620A = biological target: T1, human C2 L620A (human, UniProt P06681 21-752)
T1 sequence: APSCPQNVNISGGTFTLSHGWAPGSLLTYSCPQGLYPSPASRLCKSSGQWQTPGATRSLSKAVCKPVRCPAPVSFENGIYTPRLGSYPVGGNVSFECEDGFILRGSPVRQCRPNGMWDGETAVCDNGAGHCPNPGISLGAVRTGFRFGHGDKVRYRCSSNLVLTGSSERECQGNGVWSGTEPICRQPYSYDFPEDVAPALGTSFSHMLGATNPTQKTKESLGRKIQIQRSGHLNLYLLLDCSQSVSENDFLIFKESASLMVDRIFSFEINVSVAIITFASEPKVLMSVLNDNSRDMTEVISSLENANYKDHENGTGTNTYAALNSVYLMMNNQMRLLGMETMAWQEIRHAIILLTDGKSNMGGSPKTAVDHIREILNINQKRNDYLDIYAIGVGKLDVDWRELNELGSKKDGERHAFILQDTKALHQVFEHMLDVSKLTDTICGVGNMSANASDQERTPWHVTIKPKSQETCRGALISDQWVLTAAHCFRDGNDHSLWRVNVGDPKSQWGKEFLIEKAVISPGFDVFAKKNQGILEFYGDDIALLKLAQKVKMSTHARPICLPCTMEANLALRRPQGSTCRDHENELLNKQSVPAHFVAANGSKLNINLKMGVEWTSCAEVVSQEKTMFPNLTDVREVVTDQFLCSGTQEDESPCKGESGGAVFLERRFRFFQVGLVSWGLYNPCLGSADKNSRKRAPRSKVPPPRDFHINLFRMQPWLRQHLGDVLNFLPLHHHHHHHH

human C2 R519A = biological target: T2, human C2 R519A (human, UniProt P06681 21-752)
T2 sequence: T1 sequence with R499A, A600L

human C2 D561A = biological target: T3, human C2 D561A (human, UniProt P06681 21-752)
T3 sequence: T1 sequence with D541A, A600L

human C2 N403A = biological target: T4, human C2 N403A (human, UniProt P06681 21-752)
T4 sequence: T1 sequence with N383A, A600L

B1: RF16-226 (antibody, human IgG4 S228P, lambda)
heavy: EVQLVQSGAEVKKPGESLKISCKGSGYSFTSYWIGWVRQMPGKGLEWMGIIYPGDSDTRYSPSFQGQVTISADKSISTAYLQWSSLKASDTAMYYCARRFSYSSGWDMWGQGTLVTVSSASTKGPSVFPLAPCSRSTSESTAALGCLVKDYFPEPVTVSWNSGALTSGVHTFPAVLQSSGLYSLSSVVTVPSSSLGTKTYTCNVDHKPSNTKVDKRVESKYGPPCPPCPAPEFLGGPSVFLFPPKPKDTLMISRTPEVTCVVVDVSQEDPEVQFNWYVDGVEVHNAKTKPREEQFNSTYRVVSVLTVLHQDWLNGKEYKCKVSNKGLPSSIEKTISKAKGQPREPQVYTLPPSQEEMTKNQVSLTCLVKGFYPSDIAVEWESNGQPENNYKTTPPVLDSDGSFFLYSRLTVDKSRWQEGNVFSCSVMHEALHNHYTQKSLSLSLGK
light: SYELTQPPSVSVSPGQTARITCSGDALTSKYVAWYQQKSGLAPLLVIYEDTRRPSGIPAKFSGSSSGSVATLTISGAHGDDEADYYCYSTDASGHQRVFGGGTKLTVLSQPKAAPSVTLFPPSSEELQANKATLVCLISDFYPGAVTVAWKADGSPVKAGVETTKPSKQSNNKYAASSYLSLTPEQWKSHRSYSCQVTHEGSTVEKTVAPTECS
notes: pH-dependent anti-C2 antibody from a phage display library; also called WT
Work on B1 yielded a Fold diff (human C2 L620A) of 1 fold, a Fold diff (human C2 R519A) of 1 fold and a Fold diff (human C2 D561A) of 10 fold. It also gave a Fold diff (human C2 N403A) of 1 fold.
